{"source": "paper PMC3544810", "target": "PSD95 (HA-PSD95, VN-PSD95 plasmids) (UniProt P31016)", "assay": "co-immunoprecipitation, GFP-SPIN90 and HA-PSD95", "details": "reference: GFP-SPIN90 WT; sites Y85,Y161,Y227", "data": [{"substance": "SPIN90 (from UniProt Q9NZQ3) GFP-SPIN90 YF (Y85,161,227F)", "values": [{"measurement": "binding against the reference", "value": "weaker"}]}]}
